The nanobody polyreactivity screen of Harvey et al. (2022)

Experiment: yeast display, Sf9 membrane polyspecificity reagent, FACS + sequencing; frameworks hold sequencing errors
In short: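 Polyreactivity labels are assigned by the sorting gate from which each nanobody was recovered. The gates were low and high (top ~1%), set on anti-HA fluorescence for expression and streptavidin fluorescence for reagent binding. Before sorting, galactose-induced (36–48 hours) yeast display cells were stained for 1 hour at 4 °C with 10% biotinylated, detergent-solubilized Sf9 membrane reagent.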

Which “polyreactivity (PSR sort gate)” value does the source give for “QVQLVESGGGLVQAGGSLRLSCAASGRIFRVYTMGWYRQAPGKERQLVATISYRGGSTYYADSVKGRFTISRDNAKNTVFLQMNSLTPDDNAVYNCAARLPADPGKTPGTLRTLDYWGQGTQVTVSS” here?
The value was “high polyreactivity”.

Which “polyreactivity (PSR sort gate)” value does the source give for “QVQLVESGGGLVQAGGSLRLSCAASGRIFRWNAMGWYRQAPGKERELVASITGGDITNYADSVKGRFTISRDNAKNTVYLQMNSLKPEDTAVYYCAARGYGRGRPVASYGYDYWGQGTQVTVSS” here?
The value was “low polyreactivity”.

For “QVQLVESGGGLVQAGGSLRLSCAASGRIFRWYAMGWYRQAPGKERELVAAISRSGTSTYYADSVKGRFTISRDNAKNTVYLQMNSLKPEDTAVYYCAADAVIFGMDYWGQGTQVTVSS”, which “polyreactivity (PSR sort gate)” value is on record?
The value was “low polyreactivity”.

Which “polyreactivity (PSR sort gate)” value does the source give for “QVQLVESGGGLVQAGGSLRLSCAASGRIFRWYAMGWYRQAPGKERELVATISSTGGSTYYADSVKGRFTISRDNAKNTVYLQMNSLKPEDTAVYYCNALSFITITVYSEGDYWGQGTQVTVSS” here?
Its value is “low polyreactivity”.

With “QVQLVESGGGLVQAGGSLRLSCAASGRIFRYNAMGWYRQAPGKERELVAAISWTVGRTYYADSVKGRFTISRDNAKNTVYLQMNSLKPEDTAVYYCATYFRVWYRSYDYWGQGTQVTVSS” as the sequence, how does the “polyreactivity (PSR sort gate)” value read?
Its value is “high polyreactivity”.

With “QVQLVESGGGLVQAGGSLRLSCAASGRIFRYNAMGWYRQAPGKERELVAAITRSGGSTYYADSVKGRFTISRDNAKNTVYLQMNSLKPEDTAVYYCAKVQNGQWSTSRVPGDYQYNYWGQGTQVTVSS” as the sequence, how does the “polyreactivity (PSR sort gate)” value read?
Its value is “high polyreactivity”.

With “QVQLVESGGGLVQAGGSLRLSCAASGRIFRYNAMGWYRQAPGKERELVAAITWRGGSTYYADSVKGRFTISRDNAKNTVYLQMNSLKPEDTAVYYCNKVYSLTFEYDYWGQGTQVTVSS” as the sequence, how does the “polyreactivity (PSR sort gate)” value read?
Its value is “high polyreactivity”.

For “QVQLVESGGGLVQAGGSLRLSCAASGRIFRYNAMVWNIQAPGKERELDAAISYRGTRTYYADSVKGRFTISRDNAKNTVYLQMNSLKPEDTAVYYCAKDSGYYTADDYDYWGQVTQVTVSS”, which “polyreactivity (PSR sort gate)” value is on record?
The value was “low polyreactivity”.

For “QVQLVESGGGLVQAGGSLRLSCAASGRIFRYNTIGWYRQAPGKERELVADITSSDSSTNYADSVKGRFTISRDTAKNTVYLQMNSLKPEDTAVYYCNAVIYFKFDWGQGTQVTVSS”, which “polyreactivity (PSR sort gate)” value is on record?
The value was “low polyreactivity”.

For “QVQLVESGGGLVQAGGSLRLSCAASGRIFRYNTMGWYRQAPGKERELVAAINSSGGRTYYADSVKGRFTISRDNAKNTVYLQMNSLKPEDTSVYYCAAVIYVLSGPGYDYWGQGTQVTVSS”, which “polyreactivity (PSR sort gate)” value is on record?
The value was “high polyreactivity”.

For “QVQLVESGGGLVQAGGSLRLSCAASGRIFRYNTMGWYRQAPGKERELVASITYRGGSTYYADSVKGRFTISRDNAKNTVYLQMNSLKPEDTAVYYCAASPARYWYGGKEYDYWGQGTQVTVSS”, which “polyreactivity (PSR sort gate)” value is on record?
The value was “high polyreactivity”.

With “QVQLVESGGGLVQAGGSLRLSCAASGRIFRYYAIGWYRQAPGKERELVAAISKSGGGTFYADSVKGRFTISRDNAKNTVYLQMNSLKPEDTAVYYCAARDKGLGKHDYWGQGTQVTVSS” as the sequence, how does the “polyreactivity (PSR sort gate)” value read?
The value was “low polyreactivity”.

Which “polyreactivity (PSR sort gate)” value does the source give for “QVQLVESGGGLVQAGGSLRLSCAASGRIFRYYAMGWYGQAPGKEREFVAAINSSGVNTYYADSVKGRFTISRDNAKNTVYLQMNSLKPEDTAVYYCAFLGMDYWGQGTQVTVSS” here?
Its value is “high polyreactivity”.

For “QVQLVESGGGLVQAGGSLRLSCAASGRIFRYYAMGWYRPAPGKERELVAGISSRGGSTYYADSVKGRFTISRDNAKNTVYLQMNSLKPEDTAVYYCAASPFHTVTPYGVVGRYDYWGQGTQVTVSS”, which “polyreactivity (PSR sort gate)” value is on record?
Its value is “high polyreactivity”.

With “QVQLVESGGGLVQAGGSLRLSCAASGRIFRYYAMGWYRQAPGKDRELVAAIRSASSTYYADSVKGRFTISRDNAKNTVYVQMNSLKPEDTAVSYCAARLYGVYKRRYYYWGQGTQVTVSS” as the sequence, how does the “polyreactivity (PSR sort gate)” value read?
The value was “high polyreactivity”.

Which “polyreactivity (PSR sort gate)” value does the source give for “QVQLVESGGGLVQAGGSLRLSCAASGRIFRYYAMGWYRQAPGKERELVAAINTSTGSTYYADSVKGRFTISRDNAKNTVYLQMNSLKPEDTAVYYCATGWHYYRSLRGGLAWPGGYWGQGTQVTVSS” here?
The value was “high polyreactivity”.

For “QVQLVESGGGLVQAGGSLRLSCAASGRIFRYYAMGWYRQAPGKERELVAAIRYRSGGTYYADSVKGRFTISRDNAKNTVYLQMNCLKPEDTAVYYCNADKRLRGHGYDYWGQGTQVTVSS”, which “polyreactivity (PSR sort gate)” value is on record?
The value was “high polyreactivity”.

For “QVQLVESGGGLVQAGGSLRLSCAASGRIFRYYAMGWYRQAPGKERELVAAISSGGSTNYADSVKGRFTISRDNAKNTVYIQMNSLKPEDTPVYYCAAEWYSYGARSSYGGSRNDYWGQGTQVTVSS”, which “polyreactivity (PSR sort gate)” value is on record?
The value was “low polyreactivity”.

Which “polyreactivity (PSR sort gate)” value does the source give for “QVQLVESGGGLVQAGGSLRLSCAASGRIFRYYAMGWYRQAPGKERELVAAISWSGSSTYYADSVKGRFTISRDNAKNTVFLQMNSLKPEDTAVYYCDALILSKSEYYWGQGTQVSVSS” here?
Its value is “high polyreactivity”.

For “QVQLVESGGGLVQAGGSLRLSCAASGRIFRYYAMGWYRQAPGKERELVATITASSGSTYYADSVKGRFTISRDNAKNTVYLQMNSLKPEDTAVYYCAAGFVYRPGSFIRFDYWGQGTQVTVSS”, which “polyreactivity (PSR sort gate)” value is on record?
The value was “high polyreactivity”.

Which “polyreactivity (PSR sort gate)” value does the source give for “QVQLVESGGGLVQAGGSLRLSCAASGRIFRYYAMGWYRQAPGKERELVATITSSGGSTFYADSVKGRFTISRDNAKNTVYLQMNSLKPEDTAVYYCAASRASRYFPYDYWGQGTQVTVSS” here?
The value was “high polyreactivity”.

For “QVQLVESGGGLVQAGGSLRLSCAASGRIFRYYAMGWYRQATGKERELVASISSGGSTNYADSVKGRCTISRDNAKNTVYLQMNSLKPEDTAVYYCNAVLCFRAVYEYDYWGQGTQVTVSS”, which “polyreactivity (PSR sort gate)” value is on record?
The value was “high polyreactivity”.

With “QVQLVESGGGLVQAGGSLRLSCAASGRIFRYYARGWYRQAPGKEMELVAAISGSGGSTYYADSVKGRFTISRDNAQKTVYLQIHCLKPEDTAVYSCNARYRIPSGEGDHWGQGTQVTVSS” as the sequence, how does the “polyreactivity (PSR sort gate)” value read?
The value was “low polyreactivity”.

With “QVQLVESGGGLVQAGGSLRLSCAASGRIFRYYVMGWYRQAPGKETELVAAISRSGGTTYYADSVKGRFTISRDNAKNTVYLQMNSLKPEDTAVYYCAAVYGRDPGDYWGQGTQVTVSS” as the sequence, how does the “polyreactivity (PSR sort gate)” value read?
Its value is “high polyreactivity”.

For “QVQLVESGGGLVQAGGSLRLSCAASGRIFSAYAMGGYRQAPGKGRELVAAISYSGGSTYYADSVKGRFTISRDNAKNTVYLQMNSLKPEDTAVYYCAASGPRWWRFGYWGQGTQVTVSS”, which “polyreactivity (PSR sort gate)” value is on record?
Its value is “low polyreactivity”.

For “QVQLVESGGGLVQAGGSLRLSCAASGRIFSAYAMGWYRQAPGKERELVAAISKRGGRTYYADSVKGRFTISRDNAKNTVYLQMNSLKPEDTAVYYCNKRYHDGHELDYWGQGTQVTVSS”, which “polyreactivity (PSR sort gate)” value is on record?
The value was “high polyreactivity”.

For “QVQLVESGGGLVQAGGSLRLSCAASGRIFSAYAMGWYRQAPGKERELVAAITSVGSTKYADSVKGLFTISRDNAKNTVYLQMNSLKPEDTAVYYCAAEYTRSFYIYYRFGYWGQGTQVTVSS”, which “polyreactivity (PSR sort gate)” value is on record?
Its value is “high polyreactivity”.

With “QVQLVESGGGLVQAGGSLRLSCAASGRIFSAYAMGWYRQAPGKERELVAVISRRGGRTYYADSVKGRFTISRDNAKNTVYLQMNSLKPEDTAVYYCAALGRRTRLYYWGQGTQVTVSS” as the sequence, how does the “polyreactivity (PSR sort gate)” value read?
Its value is “high polyreactivity”.

With “QVQLVESGGGLVQAGGSLRLSCAASGRIFSDNAMGWYRQAPGKERELVATINYSGGSTYYADSVKGRFTISRDNAKNTVYLQMNSLKPEDTAVYYCATRIPHRINYYDYDYWGQGTQVTVSS” as the sequence, how does the “polyreactivity (PSR sort gate)” value read?
The value was “low polyreactivity”.

With “QVQLVESGGGLVQAGGSLRLSCAASGRIFSDYAMGWYRQAPGKERELVATITSGDSTNYADSVKGRFTISRDNAKNTVYLQMNSLKTEDTAVYYCNADRFADYDYWGQGTQVTVSS” as the sequence, how does the “polyreactivity (PSR sort gate)” value read?
The value was “low polyreactivity”.

Which “polyreactivity (PSR sort gate)” value does the source give for “QVQLVESGGGLVQAGGSLRLSCAASGRIFSENAMGWYRQAPGKERELVAAITGNGGDTYYADSVKGRFTISRDNAKNTVYLQMNSLKPEDTAVYYCAAETGGLGGDYWGQGTQVTVSS” here?
Its value is “low polyreactivity”.

For “QVQLVESGGGLVQAGGSLRLSCAASGRIFSEYAMGWYRQAPGKERELVAAISGTGGRTYYADSVKGRFTISRDNAKNTVYLQMNSLKPEDTAVYYCAARTGQGPLYNHWGQGTQVTVSS”, which “polyreactivity (PSR sort gate)” value is on record?
The value was “high polyreactivity”.

With “QVQLVESGGGLVQAGGSLRLSCAASGRIFSFNAMGWYRPAPGKERELVATISWNGDSTYADSVKGRFTISRDNAKNTVYLQMNSLKPEDTAVYYCAVDVPPWDYDYWGQGTQVTVSS” as the sequence, how does the “polyreactivity (PSR sort gate)” value read?
The value was “low polyreactivity”.

Which “polyreactivity (PSR sort gate)” value does the source give for “QVQLVESGGGLVQAGGSLRLSCAASGRIFSFNAMGWYRQAPGKERELVAAISWSTGSTFYADSVKGRFTISRDNAKNTVYVQMNSLKPEDTAFYYCAREYYYRRGFFLRGYWGQGTQVTVSS” here?
The value was “high polyreactivity”.

With “QVQLVESGGGLVQAGGSLRLSCAASGRIFSFNAMGWYRQAPGKERELVATISWNGDSTYADSVKGRFTISRDNAKNTVYLQMNSLKPEDTAVYYCAVDVPPWDYDYWGQGTQVTVSS” as the sequence, how does the “polyreactivity (PSR sort gate)” value read?
The value was “low polyreactivity”.

For “QVQLVESGGGLVQAGGSLRLSCAASGRIFSFYAMVWSRQAPGKERELVAAISSGGYTYYADSVKGRFTISRDNAKNTVYLQMNSLKPEDTAVYYCATGYRKLSSRYGYWGQGTQVTVSS”, which “polyreactivity (PSR sort gate)” value is on record?
Its value is “high polyreactivity”.

With “QVQLVESGGGLVQAGGSLRLSCAASGRIFSGYAMGWYRQAPGKERELVAAISQRGGSTTYADSVKGRFTISRDNAKNTVYLQMNSLKPEDTAVYYCAKRYTYPSGYDYWGQGTQVTVSS” as the sequence, how does the “polyreactivity (PSR sort gate)” value read?
The value was “low polyreactivity”.

For “QVQLVESGGGLVQAGGSLRLSCAASGRIFSHNAMGWYRQAPGKERELVASIRSSSGRTYYADSVKGRITISRDNAKNTVYLQMNSLTPEDTAVYYCAARQYSSKPYLYGYNYWGQGTQVTVSS”, which “polyreactivity (PSR sort gate)” value is on record?
The value was “high polyreactivity”.

With “QVQLVESGGGLVQAGGSLRLSCAASGRIFSKYAMGWYRQAPGKERELVAAITYSGGSTYYADSVKGRFTISRDNAKNTVYLQMNSLKPEDTAVYYCAAVHGTSYSKWFGYWGQGTQVTVSS” as the sequence, how does the “polyreactivity (PSR sort gate)” value read?
Its value is “low polyreactivity”.

For “QVQLVESGGGLVQAGGSLRLSCAASGRIFSKYTMGWYIQAPGKEMELVAAISGSGTSTYYADSVKGRFTISRDNAKNTVYLQMNSLKPEDTAVYYCNAVKSWGHPGRYYWGQGTQVTVSS”, which “polyreactivity (PSR sort gate)” value is on record?
Its value is “high polyreactivity”.

For “QVQLVESGGGLVQAGGSLRLSCAASGRIFSLNTMGWYRQAPGKERELVATITKRGGNTYYADSVKGRFTISRDNAKNTVYLQMNSLKPEDTAFYYCAVPRSITYRYGYWGQGTQVTVSS”, which “polyreactivity (PSR sort gate)” value is on record?
The value was “high polyreactivity”.

With “QVQLVESGGGLVQAGGSLRLSCAASGRIFSLYAMGWYRQAPGKERELVADITYRGGDSTYYADSVKGRFTISRDNAKNTVYLKMNSLKPEDTAVYYCAAGQPLYQRRHSSRTYYYWGQGTQVTVSS” as the sequence, how does the “polyreactivity (PSR sort gate)” value read?
The value was “high polyreactivity”.

For “QVQLVESGGGLVQAGGSLRLSCAASGRIFSLYAMGWYRQAPGKERELVAGITWRGGSTYYADSVKGRFTISRDNAKNTVYLQMNSMKPEDTAVYYCAARPWNWRDYDYWGQGTQVTVSS”, which “polyreactivity (PSR sort gate)” value is on record?
The value was “high polyreactivity”.
